The term stoichiometry N denotes a count of units in the complex or per binding partner. As a reminder, the Kd is the free concentration of one partner at which half of the binding sites on the other are occupied at equilibrium, for simple one-to-one binding.

Results on three substances are retold here after PMC4364448.

The target in this assay is Arp2/3 complex (bovine) (UniProt A7MB62). Briefly: ITC. For orientation: Isothermal titration calorimetry measures the heat released or taken up as one component is titrated into another.

As for WCA_(WAVE) (domain or fragment), the fold lower affinity than N-WASP WCA, site-1 came to 2 fold; the fold lower affinity than N-WASP WCA, site-2 was 6 fold; the stoichiometry N was 2.

In turn, “Human GMFγ (from UniProt O60234 1-142) (natural protein)” showed a Kd of 200 nM.

WCA_(N-WASP) (domain or fragment) yielded a Kd site-1 of 20 nM, a Kd site-2 of 182 nM and a stoichiometry N of 2.
